# From PMC8125063
# Experiments:
# [1] = biological target: human Fbp2 L190G mutein (human); assay: native gel or EMSA; Native 9% PAGE; 200 mM Glycine-NaOH pH 9.0, 1 mM MgCl2, with or without 100 µM CoCl2 and/or 10 µM AMP in gel and running buffer; 3 h at 254 V
# [2] = biological target: human Fbp2 L190G mutein (human); assay: SEC; HiLoad 16/600 Superdex 200 pg; 50 mM HEPES-NaOH pH 7.5, 150 mM KCl, 1 mM MgCl2, with or without 100 µM CoCl2 and/or 10 µM AMP; 0.5 mg protein loaded, 1 mL/min
substance,measurement,setting,value
human Fbp2 L190G mutein (enzyme),stoichiometry N,[1],2
same,stoichiometry N,[2],2
